Here are results for two molecules from patent US20220218805A1.

In the assay the target is T1, Linear … (SEQ ID NO: 15) conjugated to BSA.
T1 sequence (peptide, conjugated to BSA): CGGGKLDFG
The assay can be described thus: indirect ELISA, hybridoma supernatant on linear peptide-BSA. On the technique in general: In an ELISA, binding on a coated surface is turned into a signal by an enzyme label.

B1: Ab21 (clone 2C6) (antibody, V domains shown)
VH: EVQLQQSGAELVKPGASVKLSCTASGFNIKDTHMHWVKQRPEQGLEWIGKIDPSNGNTQYDPKFQGKATITADTSSNTAYLQLSSLTSEDTAVYYCATGFAYWGQGTLVTVSA
VL: DIQMTQSPASLSASVGETVTITCRASGNIHNYLAWYQQKQGKSPQLLVYNAKTLADGVPSRFSGSGSGTQYSLKINSLQPEDFGSYYCQHFWYTPWTFGGGTKLEIK
With B1, the OD is 0.107 OD.

B2: Ab29 (clone 12D11) (antibody, V domains shown)
VH: QIQLVQSGPELKKPGETVKISCKASGYTFTNYGMNWVKQAPGKGLKWMGWINTYSGEPTYVDDFKGRFAFSLETSASTAYLQINNLKNEDMATYFCARSPGAYYTLDYWGQGTSVTVSS
VL: DIVMSQSPSSLAVSAGEKVTMSCKSSQSLLNSRTRKNYLAWYQQKPGQSPKLLIYWASTRESGVPDRFTGSGSGTDFTLTISSVQAEDLAVYYCKQSYNLYTFGGGTKLEIK
B2 returned an OD of 0.075 OD.
